Laboratory results as given in patent US20240279309A1 (Molecular Partners, published 2024).

B1: ankyrin repeat domain of SEQ ID NO: 22 (designed binder)
chain: MRGSHHHHHHGSDLGKKLLQAARAGQLDEVRELLKAGADVNAKDEFGQTPLHIAAKSGHLEIVEVLLKAGADVNAKDVYGRTPLHLAAQYGHLEIVEVLLKAGADVNAKDTQGVTPLHVAAFKGHLEIVEVLLKAGADVNAQDKSGKTPADLAARAGHQDIAEVLQKAA
notes: Expressed in E. coli from a pQE30 derivative that provides an N-terminal His-tag; purified by its His-tag for SPR
B2: SMA104 (SEQ ID NO: 102) (designed binder)
chain: MRGSHHHHHHGSDLGEKLLVAALYGQDDEVRELLKAGADVNAKDQWGLTPLHKAALQGHLEIVEVLLKAGADVNAKDERGHTPLHWAARFGHLEIVEVLLKAGADVNAQDQKGYTPADLAALWGHEDIAEVLQKAAGSPTPTPTTPTPTPTTPTPTPTGSDLGKKLLQAARAGQLDEVRELLKAGADVNAKDTWGFTPLHIAAESGHLEIVEVLLKAGADVNAKDVQGRTPLHIAAHSGHLEIVEVLLKAGADVNAKDFRGWTPLHLAAWSGHLEIVEILLKAGADVNAQDKSGKTPADLAARAGHQDIAEVLQKAAGSPTPTPTTPTPTPTTPTPTPTGSDLGKKLLQAARAGQLDEVRELLKAGADVNAKDTWGFTPLHIAAESGHLEIVEVLLKAGADVNAKDVQGRTPLHIAAHSGHLEIVEVLLKAGADVNAKDFRGWTPLHLAAWSGHLEIVEILLKAGADVNAQDKSGKTPADLAARAGHQDIAEVLQKAA
B3: DARPin® protein #29 (SEQ ID NO: 29) (designed binder)
chain: MRGSHHHHHHGSDLGKKLLQAARAGQLDEVRELLKAGADVNAKDTWGFTPLHIAAESGHLEIVEVLLKAGADVNAKDVQGRTPLHIAAHSGHLEIVEVLLKAGADVNAKDFRGWTPLHLAAWSGHLEIVEILLKAGADVNAQDKSGKTPADLAARAGHQDIAEVLQKAA
notes: His-tagged as expressed for HTRF and SPR
B4: ankyrin repeat domain of SEQ ID NO: 31 (designed binder)
chain: MRGSHHHHHHGSDLGKKLLWAAAAGQLDEVRELLKAGADVNAKDHVGYTPLHIAALAGHLEIVEVLLKAGEDVNAKDHKGRTPLHVAAAVGHLEIVEVLLKAGADVNAKDQQGVTPLHIAAITGHLEIVEVLLKAGADVNAQDKSGKTPADLAARAGHQDIAEVLQKAA
notes: as for B1
B5: SMA087 (SEQ ID NO: 100) (designed binder)
chain: MRGSHHHHHHGSDLGKKLLEAARAGQDDEVRELLKAGADVNAKDYFSHTPLHLAARNGHLKIVEVLLKAGADVNAKDFAGKTPLHLAAADGHLEIVEVLLKAGADVNAQDIFGKTPADIAADAGHEDIAEVLQKAAGSPTPTPTTPTPTPTTPTPTPTGSDLGEKLLVAALYGQDDEVRELLKAGADVNAKDQWGLTPLHKAALQGHLEIVEVLLKAGADVNAKDERGHTPLHWAARFGHLEIVEVLLKAGADVNAQDQKGYTPADLAALWGHEDIAEVLQKAAGSPTPTPTTPTPTPTTPTPTPTGSDLGKKLLQAARAGQLDEVRELLKAGADVNAKDTWGFTPLHIAAESGHLEIVEVLLKAGADVNAKDVQGRTPLHIAAHSGHLEIVEVLLKAGADVNAKDFRGWTPLHLAAWSGHLEIVEILLKAGADVNAQDKSGKTPADLAARAGHQDIAEVLQKAA

Experiments:
[1] = molecular target: T1, biotinylated human CD40 (recombinant human CD40 target) (human, UniProt P25942 21-194, biotinylated (site not stated)); experiment: SPR (ProteOn), biotinylated human CD40 on NLC chip, ankyrin repeat protein injected, 1:1 Langmuir, PBST
T1 construct: The HTRF and SPR texts say only 'biotinylated human CD40'; the Materials list a bought Fc fusion of the extracellular domain of human CD40 (ACRO Biosystems) as the only recombinant CD40; also called hCD40; Recombinant Fc fusion protein of the extracellular domain of human CD40; not shown: IgG1 Fc domain
T1 sequence (P25942 other isoform, or with tags, fused parts or gaps): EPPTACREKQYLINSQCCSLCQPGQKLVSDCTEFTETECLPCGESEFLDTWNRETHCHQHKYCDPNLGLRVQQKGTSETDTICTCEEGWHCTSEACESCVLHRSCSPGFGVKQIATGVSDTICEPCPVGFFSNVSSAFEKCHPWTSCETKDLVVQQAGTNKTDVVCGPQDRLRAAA
Method: Briefly, biotinylated human CD40 was diluted in PBST (PBS, pH 7.4 containing 0.005% Tween 20®) and coated on two lanes of a NLC chip (BioRad) to levels of respectively 400 and 700 resonance units (RU). The interaction of ankyrin repeat protein and hCD40 was then measured by injecting 200 μl running buffer (PBS, pH 7.4 containing 0.005% Tween 20®) containing serial dilutions of ankyrin repeat proteins covering a concentration range between 50 nM and 3 nM for multi-trace SPR measurements (on-rate measurement), followed by a running buffer flow for at least 10 minutes at a constant flow rate of 100 μl/min (off-rate measurement). The regeneration was performed using 30 μl of 10 mM Glycine-HCl pH 2. The signals (i.e. resonance unit (RU) values) of the interspots and a reference injection (i.e. injection of running buffer only) were subtracted from the RU traces obtained after injection of ankyrin repeat protein (double-referencing). Based on the SPR traces obtained from the on-rate and off-rate measurements, the on- and off-rate of the corresponding ankyrin repeat protein—CD40 interaction was determined using a 1:1 Langmuir kinetic model.
Dissociation constants (KD) were calculated from the estimated on- and off-rates using standard procedures known to the person skilled in the art. KD values of the binding interactions of selected ankyrin repeat proteins with human CD40 were determined to be in the nanomolar range. Table 2 provides the KD values of some selected ankyrin repeat proteins as examples.

[2] = molecular target: T2, CD40 receptor on cells (HEK293 reporter cells expressing CD40; primary human B cells) (human, UniProt P25942 21-277); experiment: cell-based or functional assay
T2 sequence (P25942 21-277): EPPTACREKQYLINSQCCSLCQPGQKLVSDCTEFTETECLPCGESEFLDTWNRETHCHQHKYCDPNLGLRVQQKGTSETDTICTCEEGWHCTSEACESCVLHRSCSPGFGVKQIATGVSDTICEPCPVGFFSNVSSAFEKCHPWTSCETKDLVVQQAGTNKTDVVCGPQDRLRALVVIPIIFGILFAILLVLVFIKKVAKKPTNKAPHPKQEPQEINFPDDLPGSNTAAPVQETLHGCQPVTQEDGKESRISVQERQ

[3] = molecular target: T2, CD40 receptor on cells (HEK293 reporter …); experiment: cell-based or functional assay; remark: listed apart in the source
[4] = molecular target: T2, CD40 receptor on cells (HEK293 reporter …); experiment: cell-based or functional assay; remark: listed apart in the source
[5] = molecular target: T2, CD40 receptor on cells (HEK293 reporter …); experiment: cell-based or functional assay; remark: listed apart in the source

Row | Binder | Kd [1] [nM] | EC50 [nM], % CD86, human B cells with FAP-CHO, w/o HSA [2] [nM] | EC50 [nM], MFI CD86, human B cells with FAP-CHO, w/o HSA [2] [nM] | Efficacy [MFI at highest dose], MFI CD86, human B cells with WT-CHO (no FAP), w/o HSA [3] [MFI] | Efficacy at highest dose, % CD86, human B cells with WT-CHO (no FAP), w/o HSA [3] [%] | Efficacy [MFI at highest dose], MFI CD86, human B cells with FAP-CHO, w/o HSA [4] [MFI] | Efficacy at highest dose, % CD86, human B cells with FAP-CHO, w/o HSA [4] [%] | further results
1 | B1 | 12 | – | – | – | – | – | – | –
2 | B2 | – | 0.23 | 0.74 | 252 | 46 | 6270 | 86.8 | efficacy of CD86 upregulation on human B cells with FAP-CHO, fold against the monovalent F-C format (SMA014) [5]: 2 fold; potency of CD86 upregulation on human B cells with FAP-CHO, fold against the monovalent F-C format (SMA014) [5]: 20 fold
3 | B3 | 73 | – | – | – | – | – | – | –
4 | B4 | 73.5 | – | – | – | – | – | – | –
5 | B5 | – | 11.4 | 28.9 | 291 | 12.5 | 1640 | 43.4 | EC50 [nM], % CD86, human B cells with FAP-CHO, w HSA [2]: 72.3 nM; EC50 [nM], MFI CD86, human B cells with FAP-CHO, w HSA [2]: 52 nM; Efficacy [MFI at highest dose], MFI CD86, human B cells with WT-CHO (no FAP), w HSA [3]: 299 MFI; Efficacy at highest dose, % CD86, human B cells with WT-CHO (no FAP), w HSA [3]: 13.7%; Efficacy [MFI at highest dose], MFI CD86, human B cells with FAP-CHO, w HSA [4]: 799 MFI; Efficacy at highest dose, % CD86, human B cells with FAP-CHO, w HSA [4]: 27%
